Data on one molecule can be found in patent publication US10272135B2, “Apolipoprotein O and fragments thereof for inducing apoptosis in a cancerous cell” (INSERM (INSTITUT NATIONAL DE LA SANTÉ ET DE LA RECHERCHE …, priority 2014, dated 2019).

One experiment concerns cyclophilin-D and/or ANT. Briefly: Blue Native Page and GST pull-down with heart mitochondria protein extracts. Particulars: BN-PAGE and GST-ApoO pull-down (FIGS. 5A and B). The format is binding, mouse. From the text:
(A) One-dimensional BN-PAGE gel analysis of mitochondrial protein complexes from mouse heart. (1): Coomassie blue staining of the 4-13% polyacrylamide one-dimensional gradient blue native gel. (2): Ponceau S staining of the transferred PVDF membrane. ApoO, ANT and CypD were detected using enhanced chemiluminescence of the transferred PVDF membranes with ApoO, ANT or CypD antibodies respectively. ApoO, ANT and CypD were detected in the same complex (black rectangle).
(B) Western blot analysis of ApoO-GST pull-down. Upper panel: Ponceau S staining of the transferred membrane used to control loading and transfer. […]
After ethical committee approval, all patients in this study gave written consent for sample collection and molecular analysis prior to inclusion. […] All ApoO sequences within the expression vectors were verified by DNA double strand sequencing using ABI PRISM®BigDye™ Terminator version 3.1 Ready reaction cycle sequencing kit (Life Technologies SAS, Villebon sur Yvette) and loaded on an ABI 3130XL DNA sequencing instrument (Life Technologies SAS, Villebon sur Yvette). […]

In another experiment the test system is glioblastoma cells. Briefly: Basal oxygen consumption in glioblastoma cells. The format is cell-based. Particulars: cells which express ApoO vs cells treated with shApoO (FIG. 14). From the text:
Further, the inventors decided to investigate the effect of transforming gliobastoma cells so that they express ApoO. For this purpose, glioblastoma cells were transformed with an adeno-associated virus 9 comprising a polynucleotide encoding ApoO.
The inventors compared the oxygen consumption after treating glioblastoma cells with a short hairpin RNA (shApoO) silencing the expression of ApoO.

B1: ApoO: 198-amino acid apolipoprotein, SEQ ID NO: 1; tested by overexpression from expression vectors or transgene (protein, listed as Homo sapiens)
chain: MFKVIQRSVGPASLSLLTFKVYAAPKKDSPPKNSVKVDELSLYSVPEGQSKYVEEARSQLEESISQLRHYCEPYTTWCQETYSQTKPKMQSLVQWGLDSYDYLQNAPPGFFPRLGVIGFAGLIGLLLARGSKIKKLVYPPGFMGLAASLYYPQQAIVFAQVSGERLYDWGLRGYIVIEDLWKENFQKPGNVKNSPGTK
As to B1, the “interaction with cyclophilin-D and/or ANT” value in the experiment on cyclophilin-D and/or ANT was “interaction”. Besides, the oxygen consumption entry in the experiment on glioblastoma cells is on record as “more important”.
